According to publication PMC7335907:

Biological target: small laccase from Streptomyces coelicolor (SLAC), T1 copper-depleted mutant C288S (SLAC-T1D) (Streptomyces coelicolor) (UniProt Q9XAL8)
Assay: SEC-MALS

**Q.** For “small laccase from Streptomyces coelicolor (SLAC), T1 copper-depleted mutant C288S (SLAC-T1D) (from UniProt Q9XAL8 1-343) (enzyme)”, which stoichiometry N is on record?
**A.** 3
